Source: article PMC12416549 (2024)

T1: TNFR1 (Homo sapiens, UniProt P19438)
T1 chain: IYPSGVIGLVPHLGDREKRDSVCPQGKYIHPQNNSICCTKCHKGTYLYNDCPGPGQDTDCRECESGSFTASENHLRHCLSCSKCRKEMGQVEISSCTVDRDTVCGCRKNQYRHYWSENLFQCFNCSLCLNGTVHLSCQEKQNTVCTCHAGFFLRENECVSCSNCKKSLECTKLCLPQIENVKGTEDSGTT

B1: P32I (designed binder)
chain: MTLQELLREEALRRAEAEAFRYALELLAEKFIEQKEYLLDLAEEIESQIRSLSGVDVEDVRKFLDKEWAWVKELLAEHPAELAEVEAARAARLAELRAEVEAKVAA
B2: A15S (designed binder)
chain: MTLQELLREEALRRSEAEAFRYALELLAEKFPEQKEYLLDLAEEIESQIRSLSGVDVEDVRKFLDKEWAWVKELLAEHPAELAEVEAARAARLAELRAEVEAKVAA
B3: A94S (designed binder)
chain: MTLQELLREEALRRAEAEAFRYALELLAEKFPEQKEYLLDLAEEIESQIRSLSGVDVEDVRKFLDKEWAWVKELLAEHPAELAEVEAARAARLSELRAEVEAKVAA
B4: E9N (designed binder)
chain: MTLQELLRNEALRRAEAEAFRYALELLAEKFPEQKEYLLDLAEEIESQIRSLSGVDVEDVRKFLDKEWAWVKELLAEHPAELAEVEAARAARLAELRAEVEAKVAA
B5: Q4T (designed binder)
chain: MTLTELLREEALRRAEAEAFRYALELLAEKFPEQKEYLLDLAEEIESQIRSLSGVDVEDVRKFLDKEWAWVKELLAEHPAELAEVEAARAARLAELRAEVEAKVAA
B6: E5I (designed binder)
chain: MTLQILLREEALRRAEAEAFRYALELLAEKFPEQKEYLLDLAEEIESQIRSLSGVDVEDVRKFLDKEWAWVKELLAEHPAELAEVEAARAARLAELRAEVEAKVAA
B7: V85I (designed binder)
chain: MTLQELLREEALRRAEAEAFRYALELLAEKFPEQKEYLLDLAEEIESQIRSLSGVDVEDVRKFLDKEWAWVKELLAEHPAELAEIEAARAARLAELRAEVEAKVAA
B8: R8N (designed binder)
chain: MTLQELLNEEALRRAEAEAFRYALELLAEKFPEQKEYLLDLAEEIESQIRSLSGVDVEDVRKFLDKEWAWVKELLAEHPAELAEVEAARAARLAELRAEVEAKVAA
B9: L82T (designed binder)
chain: MTLQELLREEALRRAEAEAFRYALELLAEKFPEQKEYLLDLAEEIESQIRSLSGVDVEDVRKFLDKEWAWVKELLAEHPAETAEVEAARAARLAELRAEVEAKVAA
B10: K103I (designed binder)
chain: MTLQELLREEALRRAEAEAFRYALELLAEKFPEQKEYLLDLAEEIESQIRSLSGVDVEDVRKFLDKEWAWVKELLAEHPAELAEVEAARAARLAELRAEVEAIVAA
B11: V100H (designed binder)
chain: MTLQELLREEALRRAEAEAFRYALELLAEKFPEQKEYLLDLAEEIESQIRSLSGVDVEDVRKFLDKEWAWVKELLAEHPAELAEVEAARAARLAELRAEHEAKVAA
B12: L24E (designed binder)
chain: MTLQELLREEALRRAEAEAFRYAEELLAEKFPEQKEYLLDLAEEIESQIRSLSGVDVEDVRKFLDKEWAWVKELLAEHPAELAEVEAARAARLAELRAEVEAKVAA
B13: V71P (designed binder)
chain: MTLQELLREEALRRAEAEAFRYALELLAEKFPEQKEYLLDLAEEIESQIRSLSGVDVEDVRKFLDKEWAWPKELLAEHPAELAEVEAARAARLAELRAEVEAKVAA
B14: D65E (designed binder)
chain: MTLQELLREEALRRAEAEAFRYALELLAEKFPEQKEYLLDLAEEIESQIRSLSGVDVEDVRKFLEKEWAWVKELLAEHPAELAEVEAARAARLAELRAEVEAKVAA
B15: K66V (designed binder)
chain: MTLQELLREEALRRAEAEAFRYALELLAEKFPEQKEYLLDLAEEIESQIRSLSGVDVEDVRKFLDVEWAWVKELLAEHPAELAEVEAARAARLAELRAEVEAKVAA
B16: P32G (designed binder)
chain: MTLQELLREEALRRAEAEAFRYALELLAEKFGEQKEYLLDLAEEIESQIRSLSGVDVEDVRKFLDKEWAWVKELLAEHPAELAEVEAARAARLAELRAEVEAKVAA
B17: F20N (designed binder)
chain: MTLQELLREEALRRAEAEANRYALELLAEKFPEQKEYLLDLAEEIESQIRSLSGVDVEDVRKFLDKEWAWVKELLAEHPAELAEVEAARAARLAELRAEVEAKVAA
B18: L26Q (designed binder)
chain: MTLQELLREEALRRAEAEAFRYALEQLAEKFPEQKEYLLDLAEEIESQIRSLSGVDVEDVRKFLDKEWAWVKELLAEHPAELAEVEAARAARLAELRAEVEAKVAA
B19: L3E (designed binder)
chain: MTEQELLREEALRRAEAEAFRYALELLAEKFPEQKEYLLDLAEEIESQIRSLSGVDVEDVRKFLDKEWAWVKELLAEHPAELAEVEAARAARLAELRAEVEAKVAA
B20: K66P (designed binder)
chain: MTLQELLREEALRRAEAEAFRYALELLAEKFPEQKEYLLDLAEEIESQIRSLSGVDVEDVRKFLDPEWAWVKELLAEHPAELAEVEAARAARLAELRAEVEAKVAA
B21: R21M (designed binder)
chain: MTLQELLREEALRRAEAEAFMYALELLAEKFPEQKEYLLDLAEEIESQIRSLSGVDVEDVRKFLDKEWAWVKELLAEHPAELAEVEAARAARLAELRAEVEAKVAA
B22: A90M (designed binder)
chain: MTLQELLREEALRRAEAEAFRYALELLAEKFPEQKEYLLDLAEEIESQIRSLSGVDVEDVRKFLDKEWAWVKELLAEHPAELAEVEAARMARLAELRAEVEAKVAA
B23: K72P (designed binder)
chain: MTLQELLREEALRRAEAEAFRYALELLAEKFPEQKEYLLDLAEEIESQIRSLSGVDVEDVRKFLDKEWAWVPELLAEHPAELAEVEAARAARLAELRAEVEAKVAA
B24: K72H (designed binder)
chain: MTLQELLREEALRRAEAEAFRYALELLAEKFPEQKEYLLDLAEEIESQIRSLSGVDVEDVRKFLDKEWAWVHELLAEHPAELAEVEAARAARLAELRAEVEAKVAA
B25: A80M (designed binder)
chain: MTLQELLREEALRRAEAEAFRYALELLAEKFPEQKEYLLDLAEEIESQIRSLSGVDVEDVRKFLDKEWAWVKELLAEHPMELAEVEAARAARLAELRAEVEAKVAA
B26: E18R (designed binder)
chain: MTLQELLREEALRRAEARAFRYALELLAEKFPEQKEYLLDLAEEIESQIRSLSGVDVEDVRKFLDKEWAWVKELLAEHPAELAEVEAARAARLAELRAEVEAKVAA

Target: T1, TNFR1
Assay: yeast display SC50

| Binder | apparent Kd (screen) |
| --- | --- |
| B1 | 0.49 nM |
| B2 | 0.539 nM |
| B3 | 0.593 nM |
| B4 | 0.593 nM |
| B5 | 0.593 nM |
| B6 | 0.49 nM |
| B7 | 0.593 nM |
| B8 | 0.539 nM |
| B9 | 0.653 nM |
| B10 | 1.05 nM |
| B11 | 0.869 nM |
| B12 | 0.869 nM |
| B13 | 12.5 nM |
| B14 | 0.446 nM |
| B15 | 0.653 nM |
| B16 | 0.593 nM |
| B17 | 0.446 nM |
| B18 | 0.593 nM |
| B19 | 18.3 nM |
| B20 | 3.99 nM |
| B21 | 0.956 nM |
| B22 | 0.539 nM |
| B23 | 11.4 nM |
| B24 | 0.49 nM |
| B25 | 0.49 nM |
| B26 | 0.718 nM |
